Reference: US7018801

Columns and labels:
[1] = molecular target: GG (GST - ICS linker - GFP model substrate for ICE) (human) [GST: P08515]
[2] = molecular target: GG (GST - ICS linker - GFP model substrate for ICE) (human) [GST: P08515]; assay: cell-based or functional assay
[3] = molecular target: T1, ICS (14 mer epitope that is part of human pro-IL-1beta) (human); assay: method not stated; 'measured in a different context' from the protease experiment
T1 chain: NEAYVHDGPVRSLN

[4] = molecular target: GG (GST - ICS linker - GFP model substrate for ICE) [GST: P08515]
[5] = molecular target: GM (GST - ICE-site linker - MBP model substrate for ICE) [GST: P08515]
Sequence of GM (GST - ICE-site linker - MBP model substrate for ICE) [GST: P08515] (P08515 whole entry, looked up): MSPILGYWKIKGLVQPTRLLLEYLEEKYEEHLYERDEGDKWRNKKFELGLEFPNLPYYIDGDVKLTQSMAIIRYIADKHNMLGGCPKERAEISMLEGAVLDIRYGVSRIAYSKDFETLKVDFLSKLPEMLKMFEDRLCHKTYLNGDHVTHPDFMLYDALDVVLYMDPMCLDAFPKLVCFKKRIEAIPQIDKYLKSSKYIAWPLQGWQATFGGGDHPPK

Sequence of GG (GST - ICS linker - GFP model substrate for ICE) [GST: P08515] (P08515 whole entry, looked up): as above

B1: synthetic LEPB (peptide, from a related filing)
peptide: KARKEAELAAATAEQ
Work on B1 yielded an IC50 (read off the curve), inhibition of ICE cleavage of GG [1] of 80 µM and an IC50 of inhibition of the cleavage of GG by ICE [2] of 50 to 100 µM.

B2: LEPB (peptide)
chain: KARKEAELAAATAEQ
modifications: not checked
Work on B2 yielded a Kd [3] of 2 µM.

B3: interleukin converting enzyme (ICE) (protein)
chain: NPAMPTSSGSEGNVKLCSLEEAQRIWKQKSAEIYPIMDKSSRTRLALIICNEEFDSIPRRTGAEVDITGMTMLLQNLGYSVDVKKNLTASDMTTELEAFAHRPEHKTSDSTFLVFMSHGIREGICGKKHSEQVPDILQLNAIFNMLNTKNCPSLKDKPKVIIIQACRGDSPGVVWFKDSVGVSGNLSLPTTEEFEDDAIKKAHIEKDFIAFCSSTPDNVSWRHPTMGSVFIGRLIEHMQEYACSCDVEEIFRKVRFSFEQPDGRAQMPTTERVTLTRCFYLFPGH
B3 was tested, and the “cleavage of substrate by purified ICE” value [4] was “Purified ICE cuts both the GG and GM substrates efficiently under these conditions” and the “cleavage of substrate by purified ICE” value [5] was “Purified ICE cuts both the GG and GM substrates efficiently under these conditions”.
